Experimental findings from US5470740 are described below.

The test system of the series is NsiI restriction endonuclease (Neisseria sicca BRL 397). Put plainly: cleavage_in_vitro. To be noted: crude sonicated extract, REact 3 buffer, 37 C, 1 h; each of pUC123 and pUC140.

Substance lambda DNA gave an activity (units/g cells) greater than 26000.
